Reference: US20250026792A1, “SELF-ASSEMBLING PEPTIDES WITH HYALURONIC ACID BINDING DOMAINS AND METHODS OF USE THEREOF” (Northwestern University, priority 2022, published 2025)
“Also recorded” adds a separate entry of the source. Where a SMILES comes first, the peptide text is derived from it. The star is where a group is joined. Biotin = O=C1N[C@H]2[C@H](CS[C@H]2CCCCC(=O)*)N1

What was measured:
[1] = Transmission electron microscopy (TEM) of peptide nanostructures; type: physicochemical; details: for TEM characterization, Sodium Cacodylate Buffer (ii): 20 mM sodium cacodylate pH 7.4, 0.5% w/v; for TEM characterization, Sodium Cacodylate Buffer (ii) / TEM characterization, Phosphate Buffered Saline (i): 30 minutes sonication, 24 hrs at 37° C.; for TEM characterization, Phosphate Buffered Saline (i): PBS pH 7.4, 0.5% w/v
Method: The sample and stain were filter-dried in between steps. Samples were collected 24 hours at 37° C. after 30 minutes of sonication. All TEM was performed on a Philips FEI Technai Spirit G2 electron microscope. Peptides were incubated in both PBS and SC.

[2] = Circular dichroism (CD) of peptides; type: physicochemical; details: 20 mM Sodium Cacodylate; for Ellipticity ratio (222 nm/208 nm) / Ellipticity 208 nm / Ellipticity 222 nm: 1.25 mg/mL; for Ellipticity 208 nm / Ellipticity 222 nm: CD data given as [θ]M×10^−3; for wavelength Minimum of CD profile: 5.0 mg/mL
Method: Data is presented in ellipticity ([θ]M×10^−3) as a function of spectral wavelength (λ).
Sodium cacodylate (SC), 20 mM pH 7.4, without and with 20% TFE was used to reduce phosphate related background signal and enhance detected structures. Circular dichroism (CD) data were collected in millidegrees, 0, and converted to molar ellipticity, [θ]M, and are expressed in units of deg×cm^2×dmol^−1. Scan speeds and digital integration times were 500 nm/min and 1 second, respectively. The data on the Y axis of the CD plots is [θ]M×10^−3. […] Consequently, CD signals are reported in the 190-260 nm range.

[3] = Concentration-dependent peptide binding to hyaluronic acid coating (biotin-streptavidin fluorescence); details: for binding to hyaluronic acid with increasing concentrations of peptide (fluorescence intensity): 0-10 mg/ml peptide, PBS pH 7.4, 37° C., HA coating 10 μg/cm^2, FIG. 3; for HA binding, overall assessment: summary and discussion statements
Method: (§1) Peptides were incubated 24 hours at 37° C. Coatings (10 μg/cm^2) were previously dried overnight in milli-Q water. Overall significance was assessed using analysis of variance, with Tukey's multiple comparison post-hoc analysis between 1-scrm and experimental groups where n=4.
N-termini biotinylated peptides were added to coated plates at 0, 1, 2.5, 5 and 10 mg/ml overnight at 37° C. in phosphate buffered saline (PBS), pH 7.4, after which the plates were washed three times with PBS.

[4] = tested on: extracellular matrix (ECM) components: Collagen type I, II, III and IV, elastin, hyaluronic acid and Geltrex; assay: ECM specificity binding test, whole panel; details: 5.0 mg/ml peptide, FIG. 4
Method: as §1, with “C. on collagens I-IV, elastin, hyaluronic acid, and Geltrex.” for “C.”, “pig/cm^2)” for “μg/cm^2)”, “ECM” for “1-scrm and experimental”
(§2) Hyaluronic acid, collagens I, II, III, and IV, elastin, and Geltrex were coated onto 96-well black plates (medium binding affinity) at 10 μg/cm^2 and were dried in milli-Q water at room temperature. N-termini biotinylated peptides were added to coated plates at 0, 1, 2.5, 5 and 10 mg/ml overnight at 37° C. in phosphate buffered saline (PBS), pH 7.4, after which the plates were washed three times with PBS. Fluorescent streptavidin-488 (4 μg/mL) was added to each well and incubated at 37° C. temperature for 24 hours, then thoroughly washed with PBS. The plates were read with a fluorescence microplate reader for fluorescence intensity (Ex 490 nm, Em 525 nm). All data were normalized to the background fluorescence intensity of Streptavidin-488.

elastin (bovine) = biological target: T1, elastin (bovine) (bovine, UniProt P04985 27-747, limits assumed); assay: plate assay: biotinylated peptide (5.0 mg/ml) on dried ECM coating, streptavidin-488 fluorescence
T1 construct: Coated and dried on plates at 10 ug/cm2
T1 sequence (looked up): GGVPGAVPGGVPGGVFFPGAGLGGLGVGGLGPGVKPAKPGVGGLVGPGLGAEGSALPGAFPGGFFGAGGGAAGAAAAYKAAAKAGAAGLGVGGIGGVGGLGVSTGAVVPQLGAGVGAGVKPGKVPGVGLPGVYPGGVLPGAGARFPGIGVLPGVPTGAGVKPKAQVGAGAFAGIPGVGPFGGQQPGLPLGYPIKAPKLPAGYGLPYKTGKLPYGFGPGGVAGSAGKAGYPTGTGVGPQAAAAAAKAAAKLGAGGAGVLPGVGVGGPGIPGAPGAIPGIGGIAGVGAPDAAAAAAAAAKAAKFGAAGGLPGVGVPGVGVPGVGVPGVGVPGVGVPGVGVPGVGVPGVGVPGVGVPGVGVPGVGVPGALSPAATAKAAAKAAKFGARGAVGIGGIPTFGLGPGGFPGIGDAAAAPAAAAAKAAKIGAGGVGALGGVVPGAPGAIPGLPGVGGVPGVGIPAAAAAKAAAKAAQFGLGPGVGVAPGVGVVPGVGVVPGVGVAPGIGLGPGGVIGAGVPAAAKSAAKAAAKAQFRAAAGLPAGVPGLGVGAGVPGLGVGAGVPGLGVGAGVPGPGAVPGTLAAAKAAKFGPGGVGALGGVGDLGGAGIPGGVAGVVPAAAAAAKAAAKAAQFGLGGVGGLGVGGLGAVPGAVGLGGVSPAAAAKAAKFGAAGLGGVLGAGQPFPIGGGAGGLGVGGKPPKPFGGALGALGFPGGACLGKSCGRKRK
Method: as §1, with “C. on collagens I-IV, elastin, hyaluronic acid, and Geltrex.” for “C.”, “pig/cm²)” for “μg/cm^2)”, “ECM” for “1-scrm and experimental”
as §2, with “N-termini” for “Hyaluronic acid, collagens I, II, III, and IV, elastin, and Geltrex were coated onto 96-well black plates (medium binding affinity) at 10 μg/cm^2 and were dried in milli-Q water at room temperature. N-termini”

| Molecule | TEM characterization, Sodium Cacodylate Buffer (ii) [1] | Ellipticity ratio (222 nm/208 nm) [2] | Ellipticity 208 nm [2] | Ellipticity 222 nm [2] | wavelength Minimum of CD profile [2] | Ellipticity ratio (222 nm/208 nm) ([2]; 20% TFE) | Ellipticity 208 nm ([2]; 20% TFE) | Ellipticity 222 nm ([2]; 20% TFE) | wavelength Minimum of CD profile ([2]; 20% TFE) | TEM characterization, Phosphate Buffered Saline (i) [1] | binding to hyaluronic acid with increasing concentrations of peptide (fluorescence intensity) [3] | HA binding, overall assessment [3] | binding to hyaluronic acid ([3]; 10 mg/ml peptide) | peptide concentrations at which increased binding to hyaluronic acid is shown ([3]; FIG. 3) [mg/mL] | binding to the ECMs (for 17x-3: the ECMs other than hyaluronic acid) [4] | nanofiber formation in TEM, overall ([1]; both PBS and sodium cacodylate) | binding result (elastin (bovine)) |
| --- | --- | --- | --- | --- | --- | --- | --- | --- | --- | --- | --- | --- | --- | --- | --- | --- | --- |
| CC[C@H](C)[C@H](NC(=O)[C@H](CC(C)C)NC(=O)[C@H](CC(N)=O)NC(=O)[C@H](CC(C)C)NC(=O)[C@H](CCC(N)=O)NC(=O)[C@H](CC(C)C)NC(=O)[C@H](CCC(N)=O)NC(=O)[C@H](CC(C)C)NC(=O)[C@H](CCCCN)NC(=O)[C@H](CCCCN)NC(=O)[C@H](CCCCN)NC(=O)[C@H](CCCCN)NC(=O)[C@H](CCCCN)NC(=O)CCCC[C@@H]1SC[C@@H]2NC(=O)N[C@@H]21)C(=O)N[C@@H](CCCCN)C(=O)N[C@@H](CCCCN)C(=O)N[C@@H](CCCCN)C(=O)N[C@H](C(=O)N[C@@H](CCC(N)=O)C(=O)N[C@H](C(=O)N[C@@H](CO)C(=O)N[C@H](C(=O)N[C@H](C(=O)N[C@H](C(=O)N[C@H](C(=O)N[C@@H](CCCNC(=N)N)C(=O)N[C@@H](CCCNC(=N)N)C(=O)N[C@@H](Cc1c[nH]cn1)C(=O)O)C(C)C)C(C)C)C(C)C)C(C)C)C(C)C)C(C)C [Peptide 1-scrm, reference compound] (Biotin-KKKKKLQLQLNLIKKKVQVSVVVVRRH-OH) | No structure or fibrils |  |  |  |  |  |  |  |  |  |  |  |  |  |  |  |  |
| CC[C@H](C)[C@H](NC(=O)[C@H](CCCCN)NC(=O)[C@H](CCC(N)=O)NC(=O)[C@H](CCCCN)NC(=O)[C@H](CC(C)C)NC(=O)CCCC[C@@H]1SC[C@@H]2NC(=O)N[C@@H]21)C(=O)N[C@@H](CCCCN)C(=O)N[C@@H](Cc1c[nH]cn1)C(=O)N[C@H](C(=O)N[C@H](C(=O)N[C@@H](CCCCN)C(=O)N[C@@H](CC(C)C)C(=O)N[C@@H](CCCCN)C(=O)N[C@H](C(=O)N[C@H](C(=O)N[C@H](C(=O)N[C@@H](CCCCN)C(=O)N[C@@H](CC(C)C)C(=O)N[C@@H](CCCNC(=N)N)C(=O)N[C@@H](CO)C(=O)N[C@@H](CCC(N)=O)C(=O)N[C@@H](CC(C)C)C(=O)N[C@H](C(=O)N[C@@H](CCCCN)C(=O)N[C@@H](CCCNC(=N)N)C(=O)N[C@@H](CCCCN)C(=O)N[C@@H](CCC(N)=O)C(=O)N[C@@H](CC(N)=O)C(=O)O)C(C)C)C(C)C)C(C)C)C(C)C)C(C)C)C(C)C [mPEP35, reference compound] (Biotin-LKQKIKHVVKLKVVVKLRSQLVKRKQN-OH) | no fibers or structure can be observed; also recorded: No structure or fibrils |  |  |  |  |  |  |  |  |  |  |  |  |  |  |  |  |
| ASNLTKAAKSLKVRVIKKTKQKQVLKVL [2nd de novo, five B(X7)B domains] |  | 0.42 | −115 | −48.5 | 224-225 nm | 0.90 | −371 | −333 | 221-222 nm | Structure, but no discernible striations |  |  |  |  |  |  |  |
| LKLKSSHSIKLKVKSKQRSALVSRQKA [Peptide 6b, mPEP35 variant] |  |  |  |  | 227 nm | 0.87 | −229 | −199 | 224 nm | Structure with striations |  |  |  |  |  |  |  |
| TKSKIKIVVKSKAKKLRLALVKRIKI [Peptide 6f-2, modification of mPEP35] |  | 0.52 | −97.6 | −50.6 | 221 nm | 0.84 | −306 | −257 | 221 nm | Structure, but no discernible striations | no different than the negative reference peptide |  |  |  |  |  |  |
| TKTKIKIIVKLKSKAKLRIKLVKRHKS [Peptide 8h-2, modification of mPEP35] | No discernible structure. | 0.42 | −135 | −57.3 | 224 nm | 0.88 | −283 | −249 | 222-224 nm | No discernible structure. |  | proficient and specific binders |  |  |  |  |  |
| TQLRNKYTFLARARNALAVRTKQNIKS [BHP3, designed from 42 residue peptide BH-P] |  | 0.79 | −88.4 | −70.1 | 226 nm |  |  |  | 226 nm | form fibers with many striations that form larger fibers and the larger fibers tend to form a mesh network | increases dramatically | HA specific and robust binders | bound significantly | 10 | did not show significant binding | consistent nanofibers; also recorded: predominantly form fibers with striations and furthermore form a mesh network |  |
| Biotin-LKTKIKIIVKTKSSAKLRSKLVNSHKI-OH (SMILES CC[C@H](C)[C@H](NC(=O)[C@H](CCCCN)NC(=O)[C@H](Cc1c[nH]cn1)NC(=O)[C@H](CO)NC(=O)[C@H](CC(N)=O)NC(=O)[C@@H](NC(=O)[C@H](CC(C)C)NC(=O)[C@H](CCCCN)NC(=O)[C@H](CO)NC(=O)[C@H](CCCNC(=N)N)NC(=O)[C@H](CC(C)C)NC(=O)[C@H](CCCCN)NC(=O)[C@H](C)NC(=O)[C@H](CO)NC(=O)[C@H](CO)NC(=O)[C@H](CCCCN)NC(=O)[C@@H](NC(=O)[C@H](CCCCN)NC(=O)[C@@H](NC(=O)[C@@H](NC(=O)[C@@H](NC(=O)[C@H](CCCCN)NC(=O)[C@@H](NC(=O)[C@H](CCCCN)NC(=O)[C@@H](NC(=O)[C@H](CCCCN)NC(=O)[C@H](CC(C)C)NC(=O)CCCC[C@@H]1SC[C@@H]2NC(=O)N[C@@H]21)[C@@H](C)O)[C@@H](C)CC)[C@@H](C)CC)[C@@H](C)CC)C(C)C)[C@@H](C)O)C(C)C)C(=O)O, Variant of peptide 8h-2; biotinylated synthetic peptide) [Peptide 4] |  |  |  |  |  |  |  |  |  |  |  |  |  |  |  |  | binds |
